Measurements taken from patent publication US20250003951A1 (OXFORD UNIVERSITY INNOVATION, published 2025).
Blank lines part the entries; values can stand above or below the binder they belong to.

How the values were obtained:
Assay in all cases: cell-based or functional assay
OX289-205 = target: T1, OX289-205 (human)
T1 peptide: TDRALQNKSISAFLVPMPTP

OX289-075 = target: T2, OX289-075 (human)
T2 peptide: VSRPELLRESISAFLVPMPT

OX1149-290 = target: T3, OX1149-290 (human)
T3 peptide: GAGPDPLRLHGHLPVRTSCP

OX993-413 = target: T4, OX993-413 (human)
T4 peptide: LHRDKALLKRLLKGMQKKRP

OX993-414 = target: T5, OX993-414 (human)
T5 peptide: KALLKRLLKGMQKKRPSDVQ

OX628-81 = target: T6, OX628-81 (human)
T6 peptide: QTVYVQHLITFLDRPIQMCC

OX628-80 = target: T7, OX628-80 (human)
T7 peptide: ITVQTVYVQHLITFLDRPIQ

OX289-052 = target: T8, OX289-052 (human)
T8 peptide: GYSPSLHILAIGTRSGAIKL

OX289-221 = target: T9, OX289-221 (human)
T9 peptide: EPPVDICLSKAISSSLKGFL

B4: OX628 Peptides 80/81 clone 3 TCR (TCR, V domains shown)
V domain 1: QKEVEQNSGPLSVPEGAIASLNCTYSDRGSQSFFWYRQYSGKSPELIMSIYSNGDKEDGRFTAQLNKASQYVSLLIRDSQPSDSATYLCAVSAGGTSYGKLTFGQGTILTVHP
V domain 2: DTAVSQTPKYLVTQMGNDKSIKCEQNLGHDTMYWYKQDSKKFLKIMFSYNNKELIINETVPNRFSPKSPDKAHLNLHINSLELGDSAVYFCASSQVLRGEQYFGPGTRLTVTE
- Clone size (percent repertoire), IFNγ+ sorted T cells after peptide stimulation (OX628-81): 4.2 % of repertoire
- Clone size (percent repertoire), IFNγ+ sorted T cells after peptide stimulation (OX628-80): 4.2 % of repertoire

B5: OX993 Peptides 413/414 clone 1 TCR (TCR)
TCR alpha 1: GESVGLHLPTLSVQEGDNSIINCAYSNSASDYFIWYKQESGKGPQFIIDIRSNMDKRQGQRVTVLLNKTVKHLSLQIAATQPGDSAVYFCAEIGSGAGSYQLTFGKGTKLSVIPNIQNPDPAVYQLRD
TCR alpha 2: GESVGLHLPTLSVQEGDNSIINCAYSNSASDYFIWYKQESGKGPQFIIDIRSNMDKRQGQRVTVLLNKTVKHLSLQIAATQPGDSAVYFCAENQGGSSYKLIFGSGTRLLVRPDIQNPDPAVYQLRD
TCR beta: DTGVSQNPRHKITKRGQNVTFRCDPISEHNRLYWYRQTLGQGPEFLTYFQNEAQLEKSRLLSDRFSAERPKGSFSTLEIQRTEQGDSAMYLCASSSQSGVDTEAFFGQGTRLTVVEDLNKVFPPEVAVFEPS
- Clone size (percent repertoire), IFNγ+ sorted T cells after peptide stimulation (OX993-413): 26.7 % of repertoire
- Clone size (percent repertoire), IFNγ+ sorted T cells after peptide stimulation (OX993-414): 26.7 % of repertoire

B7: OX289 Peptide 52 clone 1 TCR (TCR)
TCR alpha: AQSVTQPDIHITVSEGASLELRCNYSYGATPYLFWYVQSPGQGLQLLLKYFSGDTLVQGIKGFEAEFKRSQSSFNLRKPSVHWSDAAEYFCAVGAYSSASKIIFGSGTRLSIRPNIQNPDPAVYQLRD
TCR beta 1: EPEVTQTPSHQVTQMGQEVILRCVPISNHLYFYWYRQILGQKVEFLVSFYNNEISEKSEIFDDQFSVERPDGSNFTLKIRSTKLEDSAMYFCASRDRGSGANVLTFGAGSRLTVLEDLKNVFPPEVAVFEPS
TCR beta 2: AVVSQHPSWVICKSGTSVKIECRSLDFQATTMFWYRQFPKQSLMLMATSNEGSKATYEQGVEKDKFLINHASLTLSTLTVTSAHPEDSSFYICSGGWGPNTGELFFGEGSRLTVLEDLKNVFPPEVAVFEPS
- Clone size (percent repertoire), IFNγ+ sorted T cells after peptide stimulation (OX289-052): 27.3 % of repertoire

B8: OX993 Peptides 413/414 clone 3 TCR (TCR, V domains shown)
V domain 1: RGEDVEQSLFLSVREGDSSVINCTYTDSSSTYLYWYKQEPGAGLQLLTYIFSNMDMKQDQRLTVLLNKKDKHLSLRIADTQTGDSAIYFCAEKKEGFKTIFGAGTRLFVKA
V domain 2: NAGVTQTPKFQVLKTGQSMTLQCAQDMNHEYMSWYRQDPGMGLRLIHYSVGAGITDQGEVPNGYNVSRSTTEDFPLRLLSAAPSQTSVYFCASQETGVGGELFFGEGSRLTVLE
- Clone size (percent repertoire), IFNγ+ sorted T cells after peptide stimulation (OX993-413): 11.6 % of repertoire
- Clone size (percent repertoire), IFNγ+ sorted T cells after peptide stimulation (OX993-414): 11.6 % of repertoire

B13: OX289 Peptide 221 clone 1 TCR (TCR, V domains shown)
V domain 1: SLAKTTQPISMDSYEGQEVNITCSHNNIATNDYITWYQQFPSQGPRFIIQGYKTKVTNEVASLFIPADRKSSTLSLPRVSLSDTAVYYCLVVPVYNQGGKLIFGQGTELSVKP
V domain 2: KAGVTQTPRYLIKTRGQQVTLSCSPISGHRSVSWYQQTPGQGLQFLFEYFSETQRNKGNFPGRFSGRQFSNSRSEMNVSTLELGDSALYLCASSSGTSGMGETQYFGPGTRLLVLE
- Clone size (percent repertoire), IFNγ+ sorted T cells after peptide stimulation (OX289-221): 65.4 % of repertoire

B14: OX289 Peptides 75/205 clone 1 TCR (TCR)
TCR alpha 1: NSVTQMEGPVTLSEEAFLTINCTYTATGYPSLFWYVQYPGEGLQLLLKATKADDKGSNKGFEATYRKETTSFHLEKGSVQVSDSAVYFCALRHKAAGNKLTFGGGTRVLVKPNIQNPDPAVYQLRD
TCR alpha 2: QQKEKSDQQQVKQSPQSLIVQKGGISIINCAYENTAFDYFPWYQQFPGKGPALLIAIRPDVSEKKEGRFTISFNKSAKQFSLHIMDSQPGDSATYFCAALFDGGSQGNLIFGKGTKLSVKPNIQNPDPAVYQLRD
TCR beta: AVVSQHPSWVICKSGTSVKIECRSLDFQATTMFWYRQFPKQSLMLMATSNEGSKATYEQGVEKDKFLINHASLTLSTLTVTSAHPEDSSFYICSASGPEKLFFGSGTQLSVLEDLNKVFPPEVAVFEPS
- Clone size (percent repertoire), IFNγ+ sorted T cells after peptide stimulation (OX289-205): 42.4 % of repertoire
- Clone size (percent repertoire), IFNγ+ sorted T cells after peptide stimulation (OX289-075): 42.4 % of repertoire

B15: OX628 Peptides 80/81 clone 2 TCR (TCR, V domains shown)
V domain 1: GQQLNQSPQSMFIQEGEDVSMNCTSSSIFNTWLWYKQDPGEGPVLLIALYKAGELTSNGRLTAQFGITRKDSFLNISASIPSDVGIYFCAGANNNARLMFGDGTQLVVKP
V domain 2: SAVISQKPSRDICQRGTSLTIQCQVDSQVTMMFWYRQQPGQSLTLIATANQGSEATYESGFVIDKFPISRPNLTFSTLTVSNMSPEDSSIYLCSVTPGGGVNTEAFFGQGTRLTVVE
- Clone size (percent repertoire), IFNγ+ sorted T cells after peptide stimulation (OX628-81): 13.5 % of repertoire
- Clone size (percent repertoire), IFNγ+ sorted T cells after peptide stimulation (OX628-80): 13.5 % of repertoire

Continued, values first:

- Clone size (percent repertoire), IFNγ+ sorted T cells after peptide stimulation (OX289-205): 13.9 % of repertoire
- Clone size (percent repertoire), IFNγ+ sorted T cells after peptide stimulation (OX289-075): 13.9 % of repertoire
B1: OX289 Peptides 75/205 clone 3 TCR (TCR, V domains shown)
V domain 1: NSVTQMEGPVTLSEEAFLTINCTYTATGYPSLFWYVQYPGEGLQLLLKATKADDKGSNKGFEATYRKETTSFHLEKGSVQVSDSAVYFCALRGRNQGGKLIFGQGTELSVKP
V domain 2: GAVVSQHPSRVICKSGTSVKIECRSLDFQATTMFWYRQFPKQSLMLMATSNEGSKATYEQGVEKDKFLINHASLTLSTLTVTSAHPEDSSFYICSARLSSGGGYEQFFGPGTRLTVLE

- Clone size (percent repertoire), IFNγ+ sorted T cells after peptide stimulation (OX1149-290): 4.8 % of repertoire
B2: OX1149 Peptide 290 clone 3 TCR (TCR)
TCR alpha 1: GDAKTTQPNSMESNEEEPVHLPCNHSTISGTDYIHWYRQLPSQGPEYVIHGLTSNVNNRMASLAIAEDRKSSTLILHRATLRDAAVYYCILVEGNEKLTFGTGTRLTIIPNIQNPDPAVYQLRD
TCR alpha 2: SQELEQSPQSLIVQEGKNLTINCTSSKTLYGLYWYKQKYGEGLIFLMMLQKGGEEKSHEKITAKLDEKKQQSSLHITASQPSHAGIYLCGADVQGSQGNLIFGKGTKLSVKPNIQNPDPAVYQLRD
TCR beta: EPEVTQTPSHQVTQMGQEVILRCVPISNHLYFYWYRQILGQKVEFLVSFYNNEISEKSEIFDDQFSVERPDGSNFTLKIRSTKLEDSAMYFCASRLGGRTTEAFFGQGTRLTVVEDLNKVFPPEVAVFEPS

- Clone size (percent repertoire), IFNγ+ sorted T cells after peptide stimulation (OX993-413): 13.7 % of repertoire
- Clone size (percent repertoire), IFNγ+ sorted T cells after peptide stimulation (OX993-414): 13.7 % of repertoire
B3: OX993 Peptides 413/414 clone 2 TCR (TCR)
TCR alpha: AQSVTQLGSHVSVSEGALVLLRCNYSSSVPPYLFWYVQYPNQGLQLLLKYTTGATLVKGINGFEAEFKKSETSFHLTKPSAHMSDAAEYFCAVSPPAQKLVFGTGTRLLVSPNIQNPDPAVYQLRD
TCR beta 1: NAGVTQTPKFQVLKTGQSMTLQCAQDMNHEYMSWYRQDPGMGLRLIHYSVGAGITDQGEVPNGYNVSRSTTEDFPLRLLSAAPSQTSVYFCASQETGVGGELFFGEGSRLTVLEDLKNVFPPEVAVFEPS
TCR beta 2: NAGVTQTPKFQVLKTGQSMTLQCAQDMNHEYMSWYRQDPGMGLRLIHYSVGAGITDQGEVPNGYNVSRSTTEDFPLRLLSAAPSQTSVYFCASSTTAVVSPLHFGNGTRLTVTEDLNKVFPPEVAVFEPS

- Clone size (percent repertoire), IFNγ+ sorted T cells after peptide stimulation (OX1149-290): 7 % of repertoire
B6: OX1149 Peptide 290 clone 2 TCR (TCR, V domains shown)
V domain 1: RGNGKNQVEQSPQSLIILEGKNCTLQCNYTVSPFSNLRWYKQDTGRGPVSLTIMTFSENTKSNGRYTATLDADTKQSSLHITASQLSDSASYICVVTGGANNLFFGTGTRLTVIP
V domain 2: KAGVTQTPRYLIKTRGQQVTLSCSPISGHRSVSWYQQTPGQGLQFLFEYFSETQRNKGNFPGRFSGRQFSNSRSEMNVSTLELGDSALYLCASSEAGEWTQYFGPGTRLTVLE

- Clone size (percent repertoire), IFNγ+ sorted T cells after peptide stimulation (OX1149-290): 20.4 % of repertoire
B9: OX1149 Peptide 290 clone 1 TCR (TCR, V domains shown)
V domain 1: GENVEQHPSTLSVQEGDSAVIKCTYSDSASNYFPWYKQELGKRPQLIIDIRSNVGEKKDQRIAVTLNKTAKHFSLHITETQPEDSAVYFCAASIATDKLIFGTGTRLQVFP
V domain 2: KAGVTQTPRYLIKTRGQQVTLSCSPISGHRSVSWYQQTPGQGLQFLFEYFSETQRNKGNFPGRFSGRQFSNSRSEMNVSTLELGDSALYLCASSWRGQGEGYTFGSGTRLTVVE

- Clone size (percent repertoire), IFNγ+ sorted T cells after peptide stimulation (OX628-81): 55.1 % of repertoire
- Clone size (percent repertoire), IFNγ+ sorted T cells after peptide stimulation (OX628-80): 55.1 % of repertoire
B10: OX628 Peptides 80/81 clone 1 TCR (TCR, V domains shown)
V domain 1: GQQLNQSPQSMFIQEGEDVSMNCTSSSIFNTWLWYKQEPGEGPVLLIALYKAGELTSNGRLTAQFGITRKDSFLNISASIPSDVGIYFCAGHQIQGAQKLVFGQGTRLTINP
V domain 2: NAGVTQTPKFRILKIGQSMTLQCTQDMNHNYMYWYRQDPGMGLKLIYYSVGAGITDKGEVPNGYNVSRSTTEDFPLRLELAAPSQTSVYFCASSYSGMNTEAFFGQGTRLTVVE

- Clone size (percent repertoire), IFNγ+ sorted T cells after peptide stimulation (OX289-052): 10.7 % of repertoire
B11: OX289 Peptide 52 clone 2 TCR (TCR, V domains shown)
V domain 1: EDKVVQSPLSLVVHEGDTVTLNCSYEVTNFRSLLWYKQEKKAPTFLFMLTSSGIEKKSGRLSSILDKKELSSILNITATQTGDSAIYLCAVGHFSSRSSGSARQLTFGSGTQLTVLP
V domain 2: DAGVIQSPRHEVTEMGQEVTLRCKPISGHNSLFWYRQTMMRGLELLIYFNNNVPIDDSGMPEDRFSAKMPNASFSTLKIQPSEPRDSAVYFCASSLKVGVDSSYNEQFFGPGTRLTVLE

- Clone size (percent repertoire), IFNγ+ sorted T cells after peptide stimulation (OX289-221): 10.9 % of repertoire
B12: OX289 Peptide 221 clone 2 TCR (TCR, V domains shown)
V domain 1: GDAKTTQPNSMESNEEEPVHLPCNHSTISGTDYIHWYRQLPSQGPEYVIHGLTSNVNNRMASLAIAEDRKSSTLILHRATLRDAAVYYCILRDVGGSEKLVFGKGTKLTVNP
V domain 2: AVVSQHPSWVICKSGTSVKIECRSLDFQATTMFWYRQFPKQSLMLMATSNEGSKATYEQGVEKDKFLINHASLTLSTLTVTSAHPEDSSFYICSAKGLENQPQHFGDGTRLSILE
